Measured values: patent US12411143B2, “CD146 and uses thereof as a biomarker and as a therapeutic target in the diagnosis and treatment of fibrosis” (ASSISTANCE PUBLIQUE HÔPITAUX DE MARSEILLE, priority 2018, dated 2025)

B1: rh-I10-sCD146: recombinant spliced variant of soluble CD146 containing intron 10, SEQ ID NO: 9 (protein, listed as Homo sapiens)
chain: MGLPRLVCAFLLAACCCCPRVAGVPGEAEQPAPELVEVEVGSTALLKCGLSQSQGNLSHVDWFSVHKEKRTLIFRVRQGQGQSEPGEYEQRLSLQDRGATLALTQVTPQDERIFLCQGKRPRSQEYRIQLRVYKAPEEPNIQVNPLGIPVNSKEPEEVATCVGRNGYPIPQVIWYKNGRPLKEEKNRVHIQSSQTVESSGLYTLQSILKAQLVKEDKDAQFYCELNYRLPSGNHMKESREVTVPVFYPTEKVWLEVEPVGMLKEGDRVEIRCLADGNPPPHFSISKQNPSTREAEEETTNDNGVLVLEPARKEHSGRYECQGLDLDTMISLLSEPQELLVNYVSDVRVSPAAPERQEGSSLTLTCEAESSQDLEFQWLREETGQVLERGPVLQLHDLKREAGGGYRCVASVPSIPGLNRTQLVNVAIFGEALPLGRDQVTPSGVVFKLFDKKPPAALGSSGAEGEAG
B2: rh-I5-13-sCD146: recombinant spliced variant of soluble CD146 containing introns 5 and 13, SEQ ID NO: 8 (protein, listed as Homo sapiens)
chain: MVYIVRQFLLYNVSGSVYLDQLIVLLTAKFSILRIAGSRVHHSPFSGHLDGCSFLSLQHSLHTSLDMSRHENVFLGLTLSSKSAGLKGFQLAFVPGLLQGTGGYLDGPLPTPVDNPRVGLEVGLRLSLPPLPPCPGVHIQSSQTVESSGLYTLQSILKAQLVKEDKDAQFYCELNYRLPSGNHMKESREVTVPVFYPTEKVWLEVEPVGMLKEGDRVEIRCLADGNPPPHFSISKQNPSTREAEEETTNDNGVLVLEPARKEHSGRYECQGLDLDTMISLLSEPQELLVNYVSDVRVSPAAPERQEGSSLTLTCEAESSQDLEFQWLREETGQVLERGPVLQLHDLKREAGGGYRCVASVPSIPGLNRTQLVNVAIFGPPWMAFKERKVWVKENMVLNLSCEASGHPRPTISWNVNGTASEQDQDPQRVLSTLNVLVTPELLETGVECTASNDLGKNTSILFLELVNLTTLTPDSNTTTGLSTSTASPHTRANSTSTGKPGLAREQGCARASFLPCPSPESPVQKGE

How the values were obtained:
ECFC [1] = test: Endothelial cell tube formation in spheroids; format: cell-based, human; conditions: recombinant proteins 50 ng/ml
Protocol: E: Effect of recombinant proteins I10-sCD146, I5-13-sCD146 and shed sCD146 50 ng/ml on the number of sprouts, branched points and cumulative sprout length in spheroid experiments realized with ECFC. Results were compared to VEGF 20 ng/ml and complete EGM2-MV medium.
Formation of spheroid experiments was performed as previously described (Korff T. et al., 2001).

ECFC [2] = test: ECFC proliferation assay; format: cell-based, human; conditions: recombinant proteins 50 ng/ml, in the presence of GM6001 10 μM
Protocol: A: Effect of siRNA targeting I10-sCD146 and I5-13-sCD146 on proliferation of ECFC. Experiments were performed in the presence of GM6001 10 μM. Results are mean values of 4 different experiments and representative pictures of the cells in one experiment are given.
B: Effect of over-expression of I10-sCD146 (p-I10-sCD146), I5-13-sCD146 (p-I5-13-sCD146) and shed sCD146 (p-shed sCD146) realized by plasmid transfection on proliferation of ECFC. Experiments were performed in the presence of GM6001 10 μM.
C: Effect of recombinant proteins I10-sCD146, I5-13-sCD146 and shed sCD146 50 ng/ml on the proliferation of ECFC. Experiments were performed in the presence of GM6001 10 μM. Results are mean values of 4 different experiments.
Experiments were performed as previously described (Stalin et al., 2013).

ECFC [3] = test: mRNA expression of sCD146 isoforms in ECFC (qPCR); format: cell-based, human; conditions: for expression of short CD146, long CD146, I5-13-sCD146 and I10-sCD146 at the mRNA level: endothelial cells treated with recombinant proteins
Protocol: C: The mRNA expression of I10-sCD146 and I5-13-sCD146 isoforms was analyzed by qPCR in ECFC after treatment of the cells for 24 h with the recombinant shed soluble CD146 50 ng/ml, VEGF 20 ng/ml, TNF 20 ng/ml, TGF beta 5 ng/ml, and netrin 50 ng/ml. Cells were also treated for 15 min with WNT5a 200 ng/ml and 1 h with WNT3a 50 ng/ml. Results are the mean values +/−SEM of 3 experiments. *: P<0.05, experimental vs Control.
Total cellular RNA was isolated from cells, reverse transcribed into cDNA and the resulting cDNA was subjected to qPCR.

[4] = tested on: CD146 KO mouse model of Systemic Sclerosis; test: CD146 KO mouse model of Systemic Sclerosis induced by bleomycin; format: in vivo; conditions: bleomycin-treated animals, subcutaneous injection
Protocol: C: Dermal thickness was evaluated in a CD146 KO mouse model of Systemic Sclerosis induced by subcutaneous injection of bleomycin. The effect of shed sCD146, I5-13-sCD146 and I10-sCD146 was estimated and the average of 4-5 different animals was given. Representative pictures are also shown.
D: The aspect of the skin is shown in the different CD146 KO mice treated with bleomycin and injected or not with shed sCD146, I10-sCD146 and I5-13-sCD146.
E: Blood vessels examination in skin of animals treated or not with shed sCD146/I10-sCD146/I5-13-sCD146. Vessels are labelled with isolectin B4. Results are representative of 3 different experiments in the 4-5 animals.
Male CD146 KO mice (11-16 weeks) were treated with subcutaneous bleomycin and were compared with littermates WT mice as previously described (Kaspi et al., 2017).
Mice skin sections were fixed in 4% formalin and embedded into paraffin. Dermal thickness was quantified using a stereological method using a Merz grid as previously described (Kaspi et al., 2017).

[5] = tested on: b-catenin/TCF transcription activity; test: b-catenin/TCF transcription assay (luciferase) in Mouse Embryonic Fibroblasts; format: cell-based; conditions: MEF from CD146 KO mice treated with bleomycin
Protocol: B: Activation of canonical Wnt signalling (b-catenin/TCF transcription activity; Luciferase assay) was estimated in Mouse Embryonic Fibroblasts (MEF) from CD146 KO and WT mice. MEF were treated or not with bleomycin in the presence or absence of shed sCD146, I5-13-sCD146 or I10-sCD146. Results are the mean values +/−SEM of 5 independent experiments.
HUVEC were obtained as previously described and were cultured in EGM2 medium (Kaspi et al., 2017). MEF (Mouse Embryonic Fibroblasts) were isolated from day 13. Embryos from CD146 KO or WT mice were isolated and cultured as previously described (Xu J., 2005).
Luciferase assay was performed as previously described (Kaspi et al., 2017).

| Molecule | pseudo-capillary generation (number of sprouts, cumulative sprout length) (ECFC [1]) | endothelial cells proliferation (ECFC [2]) | I5-13-sCD146 mRNA level (ECFC [3]; ECFC, 24 h treatment (WNT5a 15 min, WNT3a 1 h)) | dermal thickness [4] | vascularisation of the skin at macroscopic level [4] | vessel density in skin (isolectin-b4 labelling) [4] | b-catenin/TCF transcription activity [5] | expression of short CD146, long CD146, I5-13-sCD146 and I10-sCD146 at the mRNA level (ECFC [3]) |
| --- | --- | --- | --- | --- | --- | --- | --- | --- |
| sCD146: recombinant human soluble form of CD146 corresponding to the shed sCD146, obtained from Biocytex | increased the ability to generate pseudo-capillaries | increased endothelial cells proliferation | not modified | reduced this dermal thickness to the value observed in control animals | increased vascularisation | significantly reversed | decreased b-catenin/TCF transcription activity |  |
| B1 | increased the ability to generate pseudo-capillaries | increased endothelial cells proliferation |  | reduced this dermal thickness to the value observed in control animals | increased vascularisation | significantly reversed | decreased b-catenin/TCF transcription activity | did not modify the expression |
| B2 | increased the ability to generate pseudo-capillaries | increased endothelial cells proliferation |  | no significant effect | did not | no effect | increased it | did not modify the expression |
